Experimental data from patent publication US20130310317A1 (Bristol-Myers Squibb, published 2013).
Read-outs that look alike come from different tables or passages of the source.

Legend:
[1] = target: T1, human IGF-IR on cells (human, UniProt P08069 31-1367); experiment: cell-based or functional assay
[2] = target: T1, human IGF-IR on cells; experiment: displacement of [125I]-IGF-I from MCF-7 cells
Procedure: (§1) Cells were subsequently lysed and radioactivity was quantitated.
(§2) The human breast adenocarcinoma MCF-7 (ATCC, Manassas, Va.) was plated in 24 well plates at a concentration of 50,000 cells per well in RPMI 1640 (Invitrogen, Carlsbad, Calif.) containing 10% fetal bovine serum (Hyclone, Logan, Utah). The following day, cells were washed in binding buffer consisting of RPMI 1640 containing 0.1% BSA (Sigma, St. Louis, Mo.), and then pre-incubated for 30 minutes on ice in 200 μL binding buffer containing IGF-IR competitor. […] The wells were then washed with ice cold PBS containing 0.1% BSA. Cells were lysed with 500 μL buffer consisting of 0.1% SDS+0.5 N NaOH. Radioactivity of the lysates was measured using a Wallac 1470 Gamma Counter (Perkin Elmer, Wellesley, Mass.), and the data were analyzed using SigmaPlot (Systat Software, Point Richmond, Calif.).

[3] = target: T1, human IGF-IR on cells; experiment: displacement of 40 pM [125I]-IGF-I from MCF-7 cells, on ice, cell-bound CPM
Procedure: as §1, §2

[4] = target: T2, recombinant human insulin receptor (human, UniProt P06213-2 28-944, limits assumed); experiment: SPR (BIAcore), IR amine-coupled to chip
T2 construct: Amine-coupled to a CM5 chip (8300 RU); also called IR
Procedure: (§3) In brief, 60 ug/mL of IR diluted in acetate 4.5 was coupled/immobilized to a level of 8300 RU and 11.9 ug/mL of VEGF-R2-Fc diluted in acetate 5.0 was immobilized to a level of 9700 RU on flow cells 2 and 3. A blank reference surface was prepared on FC 1. […] Fibronectin-based scaffold proteins were diluted to 10 uM in HBS-EP (10 mM Hepes 150 mM NaCl 3 mM EDTA 0.05% Surfactant P20) and injected at 20 uL/min for 3 minutes over the flow cells at 25 C and dissociation was observed over 10 mins.

[5] = target: T3, recombinant human IGF-IR (human, UniProt P08069 31-932); experiment: competitive ELISA, coated IGF-IR, biotinylated IGF-I as competitor
T3 construct: Bought (R&D Systems); also called insulin-like growth factor-I receptor; IGF-1R
Procedure: (§4) MaxiSorp™ plates (Nunc International, Rochester, N.Y.) were coated with 30 nM IGF-IR in PBS at 4° C. overnight followed by blocking in OptEIA buffer (BD biosciences, San Diego, Calif.) for 3 hours at room temperature. Purified fibronectin-based scaffold proteins in OptEIA buffer were bound to each well for 1 hour at room temperature at concentrations ranging from 50 pM to 1 μM. […] The excess ligand was removed by washing with PBST and bound ligand was detected with streptavidin-HRP (Pierce, Rockford, Ill.) using TMB detection reagents (BD biosciences) according to the manufacturer's instructions

[6] = target: T4, IGF-IR-Fc (human, UniProt P08069 31-932); experiment: SPR (BIAcore); IGF-IR-Fc captured on Protein A, clone in solution
T4 construct: range 1-932; Made in house by transient transfection, captured on Protein A on CM5 chips for kinetic analysis; also called human IGF-IR-Fc fusion protein; recombinant, immobilized IGF-IR (BIAcore); not shown: hinge and constant regions of human IgG1
Procedure: One liter E. coli growths of selected optimized clones were prepared and the proteins were purified. Surface plasmon resonance (BIAcore) analysis was performed using recombinant, immobilized IGF-IR and solution-phase clones in order to determine binding kinetics and binding affinities.
(§5) The binding kinetics of fibronectin-based scaffold proteins binding proteins to the target was measured using BIAcore 2000 or 3000 biosensors (Pharmacia Biosensor). A capture assay was developed utilizing an IGF-IR-Fc fusion. A similar reagent had been described by Forbes et al. (Forbes et al. 2002, European J. Biochemistry, 269, 961-968). The extracellular domain of human IGF-IR (aa 1-932) was cloned into a mammalian expression vector containing the hinge and constant regions of human IgG1. Transient transfection of the plasmid produced a fusion protein, IGF-IR-Fc which was subsequently purified by Protein A chromatography and captured on Protein A immobilized on Biasensor CM5 chips by amine coupling. The kinetic analysis involved the capture of IGF-IR-Fc on Protein A followed by injection of the fibronectin-based scaffold protein in solution and regeneration of the Protein A surface by glycine pH 2.0. Sensorgrams were obtained at each concentration and were evaluated using a program Biaevaluation, BIA Evaluation 2.0 (BIAcore), to determine the rate constants kₐ (kₒₙ) and kd (koff) The dissociation constant, KD was calculated from the ratio of rate constants koff/kₒₙ. Typically, a concentration series (2 uM to 0 uM) of purified fibronectin-based scaffold protein was evaluated for binding to protein A captured human IGF-IR-Fc fusion protein.

[7] = target: T2, recombinant human insulin receptor; experiment: SPR (BIAcore); IR amine-coupled to chip, clone at 10 µM, signal as % of insulin signal
Procedure: (§6) One liter E. coli growths of selected optimized clones were prepared and the proteins were purified.
as §3

[8] = target: T3, recombinant human IGF-IR; experiment: direct binding ELISA: plate coated with 10 nM IGF-IR, His-tagged clone detected with His-HRP probe, TMB, OD450
Procedure: MaxiSorp™ plates (Nunc International, Rochester, N.Y.) were coated with 10 nM IGF-IR in PBS at 4° C. overnight followed by blocking in PBS-casein buffer (Pierce) for 3 hours at room temperature. Purified fibronectin-based scaffold proteins in casein buffer were bound to each well for 1 hour at room temperature at a concentration of 5 nM. The plate was washed with PBST and 100 μl of a 1:4000 dilution of His-HRP probe (Pierce) was added to each well with incubation for 15 min at room temperature. The wells were washed 5 times with PBST and the bound HRP was detected with TMB detection reagents (BD biosciences) according to the manufacturer's instructions.

[9] = target: T3, recombinant human IGF-IR; experiment: competitive ELISA: plate coated with 30 nM IGF-IR, clone bound first, then 10 nM biotinylated IGF-I as the blocked ligand, streptavidin-HRP/TMB, OD450
Procedure: as §4

[10] = target: T4, IGF-IR-Fc; experiment: SPR (BIAcore); IGF-IR-Fc captured on Protein A, clone in solution; remark: listed apart in the source
Procedure: BIAcore analysis was performed using recombinant, immobilized IGF-IR and solution-phase clones in order to determine binding kinetics and binding affinities.
as §5

[11] = target: T2, recombinant human insulin receptor; experiment: SPR (BIAcore), IR amine-coupled to chip; remark: listed apart in the source
Procedure: as §6, §3

[12] = target: T4, IGF-IR-Fc; experiment: SPR (BIAcore); IGF-IR-Fc captured on Protein A, analyte in solution
Procedure: as §5

[13] = target: T4, IGF-IR-Fc; experiment: SPR (BIAcore); immobilized IGF-IR, analyte in solution
Procedure: as §5

[14] = target: T4, IGF-IR-Fc; experiment: SPR (BIAcore); IGF-IR-Fc captured on Protein A, clone in solution; remark: listed apart in the source
Procedure: as §5

Molecule | IC50, serum mediated proliferation of NCI-H929 cells [1] | binding result [4] | Kd [6] | koff [6] | kon [6] | IC50 (read off the curve) [9] | Kd [12] | koff [12] | kon [12] | further results
anti-IGF-IR monoclonal antibody MAB391 | 100 pM |  |  |  |  |  |  |  |  | IC50 [2]: 5000 pM; IC50 (read off the curve) [3]: 2000 pM
338A06 (designed binder, Optimized derivative of 218C04; also called clone 338A06; parent clone 338A06) VSDVPRDLEVVAATPTSLLISWSARLKVARYYRITYGETGGNSPVQEFTVPKNVYTATISGLKPGVDYTITVYAVTKMRDYRPISINYRTHHHHHH |  | no binding (tested: 10 µM) | 69 pM | 0.00043 s⁻¹ | ~6.2e+06 M⁻¹ s⁻¹ | ~700 pM |  |  |  | IC50, IGF-I-dependent proliferation of BxPC-3 cells (3H-thymidine) [1]: 10000 to 20000 pM; IC50 [2]: 1000 to 2000 pM; IC50 [5]: ≤ 1000 pM; % IR Binding at 10 µM [7]: 2%; IC50 (read off the curve) [3]: ~1000 pM; EC50 (read off the curve) [8]: ~2000 pM
387B01 (designed binder, FG loop optimized derivative of 338A06) VSDVPRDLEVVAATPTSLLISWSARLKVARYYRITYGETGGNSPVQEFTVPKNVYTATISGLKPGVDYTITVYAVTSLRDYGPISINYRTHHHHHH |  | no binding (tested: 10 µM) |  |  |  |  |  |  |  | Kd [10]: 67 pM; koff [10]: 0.00044 s⁻¹; kon [10]: 6.5e+06 M⁻¹ s⁻¹; EC50 (read off the curve) [8]: ~1000 pM
353H09 (designed binder, Optimized derivative of 218C04) VSDVPRDLEVVAATPTSLLISWSDKLKVQRYYRITYGETGGNSPVQEFTVPKHDRTATISGLKPGVDYTITVYAVTKMRDYRPISINYRTHHHHHH |  |  | 57 pM | 0.00022 s⁻¹ | 3.8e+06 M⁻¹ s⁻¹ | ~1000 pM |  |  |  | binding result [11]: no binding (tested: 10 µM)
385A08 (designed binder, FG loop optimized derivative of 338A06; also called clone 385A08; unmodified 385A08) VSDVPRDLEVVAATPTSLLISWSARLKVARYYRITYGETGGNSPVQEFTVPKNVYTATISGLKPGVDYTITVYAVTRFRDYQPISINYRTHHHHHH | ~100 pM | no binding (tested: 10 µM) |  |  |  |  | 23 pM | 0.00016 s⁻¹ | 6.9e+06 M⁻¹ s⁻¹ | Kd [10]: 34 pM; koff [10]: 0.00019 s⁻¹; kon [10]: 5.7e+06 M⁻¹ s⁻¹
385A08-PEG40 (designed binder, Cys97 coupled by maleimide chemistry to a mono-functional branched 40 kDa PEG) GVSDVPRDLEVVAATPTSLLISWSARLKVARYYRITYGETGGNSPVQEFTVPKNVYTATISGLKPGVDYTITVYAVTRFRDYQPISINYRTEIDKPCQ | ~1000 pM |  |  |  |  |  | 355 pM | 0.00021 s⁻¹ | 600000 M⁻¹ s⁻¹ | fold change of on-rate (ka) relative to unmodified 385A08 [13]: ~10 fold slower
385A08-PEG20-385A08 (designed binder, Cys97 coupled by maleimide chemistry to a linear 20 kDa bifunctional PEG that links the two chains, Two copies of 385A08 with the C-terminal Cys extension, joined through PEG; also called PEG20-385A08-PEG20 variant) GVSDVPRDLEVVAATPTSLLISWSARLKVARYYRITYGETGGNSPVQEFTVPKNVYTATISGLKPGVDYTITVYAVTRFRDYQPISINYRTEIDKPCQ | < 0.1 pM |  |  |  |  |  | 6 pM | 9e-05 s⁻¹ | 1.5e+07 M⁻¹ s⁻¹ | fold change of on-rate (ka) relative to unmodified 385A08 [13]: ~2 fold faster
353F10 (designed binder, Optimized derivative of 218C04) VSDVPRDLEVVAATPTSLLISWPTHYKVARYYRITYGETGGNSPVQEFTVPKHTYTATISGLKPGVDYTITVYAVTTTKGLRHYGPISINYRTHHHHHH |  |  | 56 pM | 0.00021 s⁻¹ | 3.7e+06 M⁻¹ s⁻¹ | ~1000 pM |  |  |  | % IR Binding at 10 µM [7]: 1%
218C04 (designed binder, also called clone 218C04; pre-optimized clone) VSDVPRDLEVVAATPTSLLISWSPYLRVARYYRITYGETGGNSPVQEFTVPSSARTATISGLKPGVDYTITVYAVTPSNIIGRHYGPISINYRTHHHHHH |  |  |  |  |  |  |  |  |  | Kd [14]: 1800 pM
